# Entries after “also recorded” stand apart in the source; their conditions may differ.
# How the values were obtained:
# LHVA-93-3 PRRS virus = experiment: In-vivo lung virus titer, LHVA-93-3, comparison with control oligonucleotide and Tilmicosin (Example 4); design: species or system swine; conditions: for change in lung virus titer: LHVA-93-3, FIG. 13b
# Protocol: Swine were inoculated intranasally with sub-lethal infectious fluid containing 40TCID50/ml PRRS virus (LHVA-93-3) with or without 2.5 nmole A505 aptamer for different time intervals. Pig body weight was monitored for 2 weeks. Viral titer in the lungs was determined by the CPE titration method (OIE Terrestrial Manual—May 2015, Chapter 2.8.7—Porcine Reproductive and Respiratory Syndrome, section 1.1.3). Other pigs were sacrificed 6 days following viral inoculation and lungs were removed and homogenized in PBS 0.1% BSA (10% w/v). Following homogenization, samples were centrifuged to remove debris and stored at −80° C.
# The cells/viruses were incubated for 2-5 days and observe daily for a CPE. At day 2, seed macrophages in new microtitre plates. Fifty (50) μl of the supernatants were transferred from the plates of the first passage to the corresponding wells of the freshly seeded plates (second passage). The wells were incubated for 2-5 days and observed daily for a CPE. The results of the CPE assays were presented as log TCID50.
# Tilmicosin (Pulmotil®) was purchased from Eli Lilly (Elanco®), Canada.
# Were implemented as described hereinabove. A dose of 15 ug/Kg of A505 was used.
# The ability of the A505 aptamer to inhibit PRRSV infection was also compared to that of one of the currently available “anti-PRRSV” drugs, the antibiotic Tilmicosin. To this end, both A505 and Tilmicosin were administered once, together with the virus, using the intra-nasal route. As is shown in Table 2 below, a dose of 60 mg/pig of Tilmicosin (1 mg/kg body weight) reduced virus titer by 0.42 log TCID50, representing a 2.6-fold reduction in virus burden. This is in comparison to a reduction by 1.21 log TCID50 affected by A505 in this particular experiment (over 10 fold reduction in virus burden).
# [1] = tested on: M-S-S-GP5 peptidic complex; experiment: ELISA reverse screening: binding to M-S-S-GP5 peptidic complex, type 1; design: species or system type 1 PRRSV (Lelystad); conditions: type 1 PRRSV complex
# Protocol: (§1) ssDNA aptamers were denatured at 80° C. for 10 min and then cooled on ice for 10 min. Aptamers (30 nmole) were mixed with 25 μg of M-S-S-GP5 peptidic complex (further described in Example 6 below) in 500 μl selection buffer (50 mM Tris-HCl; pH 7.4, 5 mM KCl, 100 mM NaCl, 1 mM MgCl2 tRNA, 0.2% BSA) at 37° C. for 30 min. Aptamer-peptide complex was purified by adding the 25 μl Ni-NTA superflow and amplified by PCR using primers directed to the common T3 sequences in the aptamer library, and 3′-primer (i.e. -[…]-3′). SELEX was repeated 3 times, following which amplified nucleotides were transformed into E. coli. PCR conditions for SELEX included 5 min 95° C./1 min 95° C./1 min 55° C./1 min 72° C./10 min 72° C. and 100 pmole of each primer.
# Selected ssDNA molecules from each individual clone were biotinylated using the B-T3 which is same sequence with 5′ primer (T3 primer), and Klenow fragment (2 unit/ml). To prepare single stranded biotin conjugated CoocSeq5 aptamer for the reverse screening, T3 Primer was Biotin labelled. A 96-well flat bottom ELISA plate was prepared by coating each well with 100 μl of streptavidin (100 μg/ml) diluted in 0.1 M NaHCO3 following by a 37° C. overnight incubation. Following several washings with PBS, wells were blocked with 200 μl of PBS containing 1% BSA for 2 hours at room temperature and subsequent washing three times with PBS-T (10 mM PBS containing 0.05% (v/v) Tween-20). Thereafter, 100 μl of 2.5 pmole/100 μl biotinylated-ssDNA were added to the wells and incubated at 37° C. for 2 hours followed by washing four times with PBS-T. T3 primer was used as negative control. Following washing, 100 μl of fluid containing 2 μg histidine labelled M-S-S-GP5 peptidic complex were added to the indicated wells and incubated at 37° C. for 2 hours. The wells were then washed for 4 times with PBS-T. The reverse screening assay was completed by ELISA. […]
# type 1 (Lelystad) PRRSV = conditions: after MTT screening of 10 candidates
# Excerpt: (§2) Using various tetrazolium (MTT) colorimetric assay procedures^[xxxvi], these aptamers have been “screened” to identify the ones having the highest and fastest binding capabilities for detection and therapeutics purposes for both types of PRRSV. It should be pointed out that the aptamer having the quickest binding efficiency but not necessarily the highest binding strength is the most suitable one for the biosensor.
# [2] = tested on: M-S-S-GP5 peptidic complex; experiment: ELISA reverse screening: binding to M-S-S-GP5 peptidic complex, type 2; conditions: type 2 PRRSV complex
# Protocol: as §1
# Selected ssDNA molecules from each individual clone were biotinylated using the B-T3 which is same sequence with 5′ primer (T3 primer), and Klenow fragment (2 unit/ml). To prepare single stranded biotin conjugated CoocSeq5 aptamer for the reverse screening, T3 Primer was Biotin labelled. A 96-well flat bottom ELISA plate was prepared by coating each well with 100 μl of streptavidin (100 μg/ml) diluted in 0.1 M NaHCO3 following by a 37° C. overnight incubation. Following several washings with PBS, wells were blocked with 200 μl of PBS containing 1% BSA for 2 hours at room temperature and subsequent washing three times with PBS-T (10 mM PBS containing 0.05% (v/v) Tween-20). […]
# High binding capacity ELISA plates (Immunoplate, Nunc) were coated with 100 μl allantoic fluid containing 500 TCID50 of various PRRS virus strains diluted in phosphate buffered saline (PBS) by incubating at 4° C. overnight. […] Following this incubation period, plates were washed five times in PBS-T and bound antibodies were detected using horseradish peroxidase labelled goat anti-mouse IgG conjugates (HRP). […] Reaction was terminated with 50 μl of 2M H2SO4, plates were read with a multichannel spectrophotometer at 570 nm.
# type 2 PRRSV = conditions: after MTT screening of 10 candidates
# Excerpt: as §2
# [3] = tested on: intact PRRS virus (LHVA-93-3); experiment: ELISA binding to intact PRRS virus; design: species or system PRRSV; conditions: vs control ssDNA or between aptamers, FIG. 8a
# LHVA-3 PRRS virus = experiment: MTT assay, in vitro protection of PAMs or MARC-145 cells from LHVA-3 infection; assay type: cell-based, PRRSV; conditions: 500 pmole; LHVA-3 and NVSL; FIG. 9b
# Protocol: PAMs or MARC-145 cells were plated in 96 well plates (7×10^4/well) one day prior to the assay. […] Following infection, cells were incubated in growth medium at 37° C. for 72 hours. MTT assay was performed by adding 4 mg/ml MTT (3-[4,5-Dimethylthiazol-2-yl]-2,5-diphenyltetrazolium bromide dissolved in PBS to the cell cultures and incubation at 37° C. for 3 hours. Plates were then centrifuged at 800×g for 10 min. Supernatants were aspirated and the formazan dye was dissolved in 150 μl/well of isopropyl alcohol, and O.D. values were determined with an ELISA reader at 570 nm.
# In Vitro Viral Protection Prior to Viral Infection PAMs or MARC-145 cells were plated on 96 well plates (7×10^4/well) 24 hours prior to the experiment. Each well was washed twice with DPBS prior to treating the cells with various amounts of A505 (12.5 to 2000 pmole) at 37° C. for the indicated time points. […] Following incubation, cells were transferred to growth medium and incubated at 37° C. for 72 hours. Thereafter an MTT assay was implemented as described.
# In Vitro Viral Protection Following Viral Infection—PAMs or MARC-145 cells were plated on 96 well plates (7×10^4/well) 24 hours prior to viral infection. Viral infection was effected as described above. Infected cells were gently washed with DPBS for 3 times. Cells were then treated with various amounts of A505 (12.5 to 2000 pmole) for 1 hour at 37° C. Following incubation, cells were transferred to growth medium and incubated at 37° C. for 72 hours. Thereafter an MTT assay was implemented as described.
molecule,measurement,setting,value
"CC[C@H]1OC(=O)C[C@@H](O)[C@H](C)[C@@H](O[C@@H]2O[C@H](C)[C@@H](O)[C@H](N(C)C)[C@H]2O)[C@@H](CCN2C[C@H](C)C[C@H](C)C2)C[C@@H](C)C(=O)/C=C/C(C)=C/[C@@H]1CO[C@@H]1O[C@H](C)[C@@H](O)[C@@H](OC)[C@H]1OC [Tilmicosin, reference compound]",Reduction Factor,"LHVA-93-3 PRRS virus; Table 2, administered once with the virus, intra-nasal",2.6
same,"Δ (log TCID50), reduction of virus titer","LHVA-93-3 PRRS virus; administered once together with the virus, intra-nasal, Tilmicosin 60 mg/pig (1 mg/kg), A505 15 ug/Kg",0.42 log TCID50
same,reduction in virus burden,"LHVA-93-3 PRRS virus; administered once with the virus, intra-nasal",2.6 fold
"PEU-962: ssDNA aptamer binding type 1 (Lelystad) PRRSV M-S-S-GP5 complex (nucleic acid, DNA, backbone and methylation of C not given here) DNA: GGGCGACCCTGAAGAGGATAGACAATAGCACACCACGCCCCTGCCACGAAACGGTGAAAGCCGTAGGTTGCCC",binding to the M-S-S-GP5 complex/heterodimer,[1],binding capacity to the M-S-S-GP5 complex; also recorded: found to bind the M-S-S-GP5 heterodimer
same,binding capabilities from biosensing and therapeutic perspectives,type 1 (Lelystad) PRRSV,good binding capabilities
"A501: ssDNA candidate aptamer for type 2 PRRSV M-S-S-GP5 complex; used as control irrelevant nucleotide in Example 4 (nucleic acid, DNA, backbone and methylation of C not given here) DNA: GGGCGACCCTGAAGAGAAAGGTGAGTTTATTGCGGGGGTTATTTATTGCTTCGAAACGGTGAAAGCCGTAGGTTGCCC",change in lung virus titer,LHVA-93-3 PRRS virus,insignificant change in the viral titer
"A507: ssDNA aptamer binding type 2 PRRSV M-S-S-GP5 complex (nucleic acid, DNA, backbone and methylation of C not given here) DNA: GGGCGACCCTGAAGAGGTTTGCATATTATAGTTATAGGAGGTGTGTAATGGACGAAACGGTGAAAGCCGTAGGTTGCCC",binding to the M-S-S-GP5 complex/heterodimer,[2],binding capacity to the M-S-S-GP5 complex; also recorded: found to bind the M-S-S-GP5 heterodimer
same,binding capabilities from biosensing and therapeutic perspectives,type 2 PRRSV,highest binding capabilities
"PEU-424: ssDNA aptamer binding type 1 (Lelystad) PRRSV M-S-S-GP5 complex (nucleic acid, DNA, backbone and methylation of C not given here) DNA: GGGCGACCCTGAAGAGGATGTTGATAGAGCGCCGACCACACACGCACGAAACGGTGAAAGCCGTAGGTTGCCC",binding to the M-S-S-GP5 complex/heterodimer,[1],binding capacity to the M-S-S-GP5 complex; also recorded: found to bind the M-S-S-GP5 heterodimer
same,binding capabilities from biosensing and therapeutic perspectives,type 1 (Lelystad) PRRSV,good binding capabilities
"A508: ssDNA aptamer binding type 2 PRRSV M-S-S-GP5 complex (nucleic acid, DNA, backbone and methylation of C not given here) DNA: GGGCGACCCTGAAGAGACTGGTGAGTTAATGTTTTTTCTTAGCCTTGTATCGAAACGGTGAAAGCCGTAGGTTGCCC",binding to the M-S-S-GP5 complex/heterodimer,[2],highly significant differences from the control ssDNA; also recorded: binding capacity to the M-S-S-GP5 complex; also recorded: found to bind the M-S-S-GP5 heterodimer
same,binding level to the intact virus,[3],significant binding
same,in-vitro infectivity of the viruses / cell mortality,LHVA-3 PRRS virus,capable of reducing the in-vitro infectivity of the viruses
same,change in lung virus titer,LHVA-93-3 PRRS virus,less effective than A505 was still capable of reducing the lung virus titer
same,binding capabilities from biosensing and therapeutic perspectives,type 2 PRRSV,highest binding capabilities
"PEU-842: ssDNA aptamer binding type 1 (Lelystad) PRRSV M-S-S-GP5 complex (nucleic acid, DNA, backbone and methylation of C not given here) DNA: GGGCGACCCTGAAGAGGACCAGAAGCACGGACCACACACAGCGTATCGAAACGGTGAAAGCCGTAGGTTGCCC",binding to the M-S-S-GP5 complex/heterodimer,[1],binding capacity to the M-S-S-GP5 complex; also recorded: found to bind the M-S-S-GP5 heterodimer
same,binding capabilities from biosensing and therapeutic perspectives,type 1 (Lelystad) PRRSV,good binding capabilities
"PEU-852: ssDNA aptamer binding type 1 (Lelystad) PRRSV M-S-S-GP5 complex (nucleic acid, DNA, backbone and methylation of C not given here) DNA: GGGCGACCCTGAAGAGGACACTGCACGTACACAACGAGGATGAACACGAAACGGTGAAAGCCGTAGGTTGCCC",binding to the M-S-S-GP5 complex/heterodimer,[1],binding capacity to the M-S-S-GP5 complex; also recorded: found to bind the M-S-S-GP5 heterodimer
same,binding capabilities from biosensing and therapeutic perspectives,type 1 (Lelystad) PRRSV,good binding capabilities
"PEU-499: ssDNA aptamer binding type 1 (Lelystad) PRRSV M-S-S-GP5 complex (nucleic acid, DNA, backbone and methylation of C not given here) DNA: GGGCGACCCTGAAGAGTACACACGGGACACACACACACTCACTAGACGAAACGGTGAAAGCCGTAGGTTGCCC",binding to the M-S-S-GP5 complex/heterodimer,[1],binding capacity to the M-S-S-GP5 complex; also recorded: found to bind the M-S-S-GP5 heterodimer
same,binding capabilities from biosensing and therapeutic perspectives,type 1 (Lelystad) PRRSV,good binding capabilities
